Values quoted from earlier work in patent US12576131B2, “Altering inflammatory states of immune cells in vivo by modulating cellular activation states” (Fred Hutchinson Cancer Center, priority 2018, dated 2026).

Tested on: IRF8 responsive genes
Conditions: mutation of the K310 residue prevents SUMO binding

B1: murine IRF8 mutant: murine IRF8 with substitution of Lysine (K) at residue 310 with Arginine (R), SEQ ID NO: 17 (protein)
chain: MCDRNGGRRLRQWLIEQIDSSMYPGLIWENDEKTMFRIPWKHAGKQDYNQEVDASIFKAWAVFKGKFKEGDKAEPATWKTRLRCALNKSPDFEEVTDRSQLDISEPYKVYRIVPEEEQKCKLGVAPAGCMSEVPEMECGRSEIEELIKEPSVDEYMGMTKRSPSPPEACRSQILPDWWVQQPSAGLPLVTGYAAYDTHHSAFSQMVISFYYGGKLVGQATTTCLEGCRLSLSQPGLPKLYGPDGLEPVCFPTADTIPSERQRQVTRKLFGHLERGVLLHSNRKGVFVKRLCQGRVFCSGNAVVCKGRPNRLERDEVVQVFDTNQFIRELQQFYATQSRLPDSRVVLCFGEEFPDTVPLRSKLILVQVEQLYARQLVEEAGKSCGAGSLMPALEEPQPDQAFRMFPDICTSHQRPFFRENQQITV
For B1, which “increase in IRF8 specific gene transcription” value is on record?
The value was 2-5 fold.
